# Marks after values point to notes of the source that are not given here.
# How the values were obtained:
# Meth A cells = experiment: Antineoplastic activity of the complexes of Examples 1, 5 and 6 (Example 10); format: in vivo, BALB/c mice; conditions: singly administered on the 7th day; for IR, diminution rate of the tumor: 21th day; for Average tumor weight: tumor weighed on the 21th day
# Experimental: (§1) Meth A cells were transplanted into BALB/c mice to prepare Meth A tumor-bearing mice. On the 7th day after the transplantation, the drug complexes shown in Examples 1, 5 and 6 were singly administered, respectively. The weight of the tumor was measured on the 21th day to evaluate the inhibitory activity on the tumor and the toxicity. In the table, * represents significance in Dunnet's test (*** p<0.001, ** P<0.01, * P<0.05), the dose is expressed in terms of the weight of anhydrous free base of DX-8951, and IR represents the diminution rate of the tumor.
# [1] = Release of the drug compound from the drug complex in buffer (Example 2); format: physicochemical; conditions: for released amount of the drug (DX-8951), percentage of the drug in the drug complex used: 37° C., 378 μg/ml, after 20 hours
# Experimental: (§2) The drug complex obtained in Example 1 was dissolved in a Meth A (murine fibrosarcoma Meth A) homogenate or a buffer at 37° C. (378 μg/ml). After 20 hours, released DX-8951 was determined. The compound wherein the spacer and DX-8951 were bound to each other without p-aminobenzyloxycarbonyl group was prepared and used as a comparative compound. The released amount of the drug is expressed in percentage of the released amount of the drug to the amount of the drug in the drug complex used.
# [2] = test system: Meth A cells (murine fibrosarcoma Meth A); experiment: Antineoplastic activity of the drug complex of Example 1 (Example 4); format: in vivo, BALB/c mice; conditions: for BWLmax, maximum body-weight reduction rate / N, mice died/mice used / IR, diminution rate of the tumor / Average tumor weight / day when the maximum body-weight reduction was observed: administered on the 7th day; for IR, diminution rate of the tumor: 21th day; for Average tumor weight: tumor weighed on the 21th day
# Experimental: as §1, with “cells (murine fibrosarcoma Meth A)” for “cells”, “complex of Example 1 was administered.” for “complexes shown in Examples 1, 5 and 6 were singly administered, respectively.”, “P<0.001,” for “p<0.001,”, “P<0.01),” for “P<0.01, * P<0.05),”
# [3] = test system: Meth A tumor-bearing mice; experiment: Maximum tolerated dose (MTD) of the drug complex of Example 1 (Example 3); format: in vivo, BALB/c mice; conditions: for N, mice died/mice used / BWLmax, maximum body-weight reduction rate / day when the maximum body-weight reduction was observed: single administration on the 20th day
# Experimental: (§3) Meth A cells were transplanted into BALB/c mice to prepare Meth A tumor-bearing mice. On the 20th day, single administration of the drug complex of Example 1 was carried out. After the administration, measurement of the body weight and observation of toxic death were made with time and the maximum body-weight reduction rate and mortality were calculated, which are shown in Table 2. The dose is expressed in terms of the weight of anhydrous free base of DX-8951.
# [4] = Release of the drug compound from the drug complex in mouse plasma (Example 2); format: in vitro ADME; conditions: 37° C., 378 μg/ml, after 20 hours
# [5] = Release of the drug compound from the drug complex in Meth A homogenate (Example 2); format: in vitro ADME, murine; conditions: for released amount of the drug (DX-8951), percentage of the drug in the drug complex used: 37° C., 378 μg/ml, after 20 hours
# Experimental: as §2
# [6] = Release of the drug compound from the drug complex in buffer (Example 8); format: physicochemical; conditions: for released amount of the drug (DX-8951), percentage of the drug in the drug complex used: 37° C., 50 μg/ml, after 20 hours
# Experimental: (50 μg/ml). […] The released amount of the drug is expressed in percentage of the released amount of the drug to the amount of the drug in the drug complex used.
# [7] = test system: Meth A tumor-bearing mice; experiment: Maximum tolerated dose of the drug complexes of Examples 5, 6 and 7 (Example 9); format: in vivo, BALB/c mice; conditions: single administration on the 13th day
# Experimental: as §3, with “13th” for “20th”, “day,” for “day, single administration of”, “complexes obtained in Examples 5, 6 and 7 were singly administered.” for “complex of Example 1 was carried out.”, “time,” for “time”, “5.” for “2.”
# On the basis of the dose in which body weight reduction and death were observed, MTD of each complex were judged as follows.
substance,measurement,setting,value
Carboxymethyldextran polyalcohol-Gly-Gly-Gly-Phe-NH-p-C6H4—CH2—O—CO-DX-8951 [Example 6],"IR, diminution rate of the tumor",Meth A cells; 0.15625 mg/kg,37%
same,Average tumor weight,Meth A cells; 0.15625 mg/kg,1.645 ± 0.191* g
same,"IR, diminution rate of the tumor",Meth A cells; 0.3125 mg/kg,46%
same,Average tumor weight,Meth A cells; 0.3125 mg/kg,1.419 ± 0.163** g
same,"IR, diminution rate of the tumor",Meth A cells; 0.625 mg/kg,90%
same,Average tumor weight,Meth A cells; 0.625 mg/kg,0.272 ± 0.066*** g
same,"IR, diminution rate of the tumor",Meth A cells; 1.25 mg/kg,99%
same,Average tumor weight,Meth A cells; 1.25 mg/kg,0.016 ± 0.008*** g
Carboxymethyldextran polyalcohol-Gly-Gly-Phe-Gly-NH-p-C6H4—CH2—O—CO-DX-8951 [Example 1],"released amount of the drug (DX-8951), percentage of the drug in the drug complex used",[1]; Buffer (pH 4.5),0.190%
same,"released amount of the drug (DX-8951), percentage of the drug in the drug complex used",[1]; Buffer (pH 5.5),0.178%
same,"released amount of the drug (DX-8951), percentage of the drug in the drug complex used",[1]; Buffer (pH 6.5),0.171%
same,"released amount of the drug (DX-8951), percentage of the drug in the drug complex used",[1]; Buffer (pH 7.5),0.138%
same,release of the drug in words,[1]; buffer,hardly released
same,"BWLmax, maximum body-weight reduction rate",[2]; 0.625 mg/kg,<0%
same,"N, mice died/mice used",[2]; 0.625 mg/kg,0/6
same,"IR, diminution rate of the tumor",[2]; 0.625 mg/kg,46%
same,Average tumor weight,[2]; 0.625 mg/kg,1.247 ± 0.280** g
same,"BWLmax, maximum body-weight reduction rate",[2]; 1.25 mg/kg,0.3%
same,"N, mice died/mice used",[2]; 1.25 mg/kg,0/6
same,day when the maximum body-weight reduction was observed,[2]; 1.25 mg/kg,8 days
same,"IR, diminution rate of the tumor",[2]; 1.25 mg/kg,74%
same,Average tumor weight,[2]; 1.25 mg/kg,0.610 ± 0.180*** g
same,"BWLmax, maximum body-weight reduction rate",[2]; 5 mg/kg,2.9%
same,"N, mice died/mice used",[2]; 5 mg/kg,0/6
same,day when the maximum body-weight reduction was observed,[2]; 5 mg/kg,13 days
same,"IR, diminution rate of the tumor",[2]; 5 mg/kg,99%
same,Average tumor weight,[2]; 5 mg/kg,0.019 ± 0.004*** g
same,"BWLmax, maximum body-weight reduction rate",[2]; 7.5 mg/kg,24.8%
same,"N, mice died/mice used",[2]; 7.5 mg/kg,2/6
same,day when the maximum body-weight reduction was observed,[2]; 7.5 mg/kg,15 days
same,"IR, diminution rate of the tumor",[2]; 7.5 mg/kg,100%
same,Average tumor weight,[2]; 7.5 mg/kg,0.008 ± 0.002*** g
same,effect on tumor weight in words,[2]; 0.625 to 7.5 mg/kg,apparently diminished tumor weight dose-dependently
same,"N, mice died/mice used",[2]; […],0/6
same,"BWLmax, maximum body-weight reduction rate",Meth A cells; 0.625 mg/kg,<0%
same,"N, mice died/mice used",Meth A cells; 0.625 mg/kg,0/6
same,"IR, diminution rate of the tumor",Meth A cells; 0.625 mg/kg,43%
same,Average tumor weight,Meth A cells; 0.625 mg/kg,1.489 ± 0.215** g
same,"BWLmax, maximum body-weight reduction rate",Meth A cells; 1.25 mg/kg,<0%
same,"N, mice died/mice used",Meth A cells; 1.25 mg/kg,0/6
same,"IR, diminution rate of the tumor",Meth A cells; 1.25 mg/kg,71%
same,Average tumor weight,Meth A cells; 1.25 mg/kg,0.775 ± 0.207*** g
same,"BWLmax, maximum body-weight reduction rate",Meth A cells; 5 mg/kg,4.0%
same,"N, mice died/mice used",Meth A cells; 5 mg/kg,0/6
same,day when the maximum body-weight reduction was observed,Meth A cells; 5 mg/kg,13 days
same,"IR, diminution rate of the tumor",Meth A cells; 5 mg/kg,100%
same,Average tumor weight,Meth A cells; 5 mg/kg,0.004 ± 0.001*** g
same,"BWLmax, maximum body-weight reduction rate",Meth A cells; 7.5 mg/kg,26.1%
same,"N, mice died/mice used",Meth A cells; 7.5 mg/kg,2/6
same,day when the maximum body-weight reduction was observed,Meth A cells; 7.5 mg/kg,16 days
same,"IR, diminution rate of the tumor",Meth A cells; 7.5 mg/kg,100%
same,Average tumor weight,Meth A cells; 7.5 mg/kg,0.005 ± 0.003*** g
same,"N, mice died/mice used",Meth A cells; […],0/6
same,"N, mice died/mice used",[3]; 0.156 mg/kg,0/2
same,"BWLmax, maximum body-weight reduction rate","[3]; 0.156 mg/kg, <0 = no reduction observed",<0%
same,"N, mice died/mice used",[3]; 0.625 mg/kg,0/2
same,"BWLmax, maximum body-weight reduction rate","[3]; 0.625 mg/kg, <0 = no reduction observed",<0%
same,toxic death in words,[3]; 10 mg/kg,toxic death of all the cases
same,"BWLmax, maximum body-weight reduction rate",[3]; 10 mg/kg,32.8%
same,"N, mice died/mice used",[3]; 10 mg/kg,2/2
same,day when the maximum body-weight reduction was observed,[3]; 10 mg/kg,26 days
same,"BWLmax, maximum body-weight reduction rate",[3]; 30 mg/kg (as DX-8951 anhydrous free base),17.9%
same,"N, mice died/mice used",[3]; 30 mg/kg,2/2
same,day when the maximum body-weight reduction was observed,[3]; 30 mg/kg,22 days
same,"N, mice died/mice used",[3]; […],0/2
same,"released amount of the drug (DX-8951), percentage of the drug in the drug complex used",[4],0.186%
same,"released amount of the drug (DX-8951), percentage of the drug in the drug complex used",[5]; Meth A homogenate (pH 4.5),37.7%
same,"released amount of the drug (DX-8951), percentage of the drug in the drug complex used",[5]; Meth A homogenate (pH 5.5),38.1%
same,"released amount of the drug (DX-8951), percentage of the drug in the drug complex used",[5]; Meth A homogenate (pH 6.5),4.25%
same,releasing rate of DX-8951 relative to the drug complex obtained in Example 5,[5]; tables in Examples 2 and 8,about 113
same,release of the drug in words,[5]; weakly acidic homogenate,rapidly released
carboxymethyldextran polyalcohol-Gly-Gly-NH-p-C6H4—CH2—O—CO-DX-8951 [Example 7],"released amount of the drug (DX-8951), percentage of the drug in the drug complex used",[6]; Buffer (pH 4.5),0.15%
same,"released amount of the drug (DX-8951), percentage of the drug in the drug complex used",[6]; Buffer (pH 6.5),0.16%
same,release of the drug in words,[6]; buffer,hardly released
same,"BWLmax, maximum body-weight reduction rate",[7]; 5 mg/kg,25.4%
same,day when the maximum body-weight reduction was observed,[7]; 5 mg/kg,18 days
same,"BWLmax, maximum body-weight reduction rate",[7]; 10 mg/kg,13.7%
same,day when the maximum body-weight reduction was observed,[7]; 10 mg/kg,16 days
same,"BWLmax, maximum body-weight reduction rate",[7]; 20 mg/kg,14.2%
same,day when the maximum body-weight reduction was observed,[7]; 20 mg/kg,16 days
same,"BWLmax, maximum body-weight reduction rate",[7]; 30 mg/kg,14.6%
same,day when the maximum body-weight reduction was observed,[7]; 30 mg/kg,16 days
same,MTD,[7]; dose as DX-8951 anhydrous free base,<2.5 mg/kg
